According to patent US20160220651A1 (UNIVERSITY OF PITTSBURGH OF THE COMMONWEALTH SYSTEM OF …, published 2016):

Biological target: T1, HLA-A2 complexes expressed by T2 cells (human)
T1 construct: whole, on cells; also called HLA-A2.1 class I molecule
Assay: T2 class I stabilization assay, flow cytometry

binding result | Binder
binds | NMLGMLSGL (Synthetic peptide (Fmoc), >96% pure) [NRP2 436-444 peptide NMLGMLSGL]
binds | GMLGMVSGL (Synthetic peptide (Fmoc), >96% pure) [NRP1 433-441 peptide GMLGMVSGL]
binds | LAALPHSCL (Synthetic peptide (Fmoc), >96% pure) [RGS5 5-13 peptide LAALPHSCL]
binds | RLLVVYPWT (Synthetic peptide (Fmoc), >96% pure) [HBB 31-39 peptide RLLVVYPWT]
binds | ILLWEIFTL (Synthetic peptide (Fmoc), >96% pure; also called PDGFRβ (891)) [PDGFRβ 890-898 peptide ILLWEIFTL]
binds | RLTPGVHEL (Synthetic peptide (Fmoc), >96% pure) [DLK1 269-277 peptide RLTPGVHEL]
binds | RLLGNVLVCV (Synthetic peptide (Fmoc), >96% pure) [HBB 105-114 peptide RLLGNVLVCV]
binds | DIWDGIPHV (Synthetic peptide (Fmoc), >96% pure) [NRP2 214-222 peptide DIWDGIPHV]
binds | VIAMFFWLL (Synthetic peptide (Fmoc), >96% pure) [VEGFR2 773-781 peptide VIAMFFWLL]
binds | TLSNLSFPV (Synthetic peptide (Fmoc), >96% pure) [NG2 770-778 peptide TLSNLSFPV]
binds | LILPLLFYL (Synthetic peptide (Fmoc), >96% pure) [NG2 2238-2246 peptide LILPLLFYL]
binds | FLNKCETWV (Synthetic peptide (Fmoc), >96% pure) [DLK1 326-334 peptide FLNKCETWV]
binds | TLFWLLLTL (Synthetic peptide (Fmoc), >96% pure) [VEGFR1 770-778 peptide TLFWLLLTL]
binds | ILGVLTSLV (Synthetic peptide (Fmoc), >96% pure) [DLK1 310-318 peptide ILGVLTSLV]
binds | TLADFDPRV (Synthetic peptide (Fmoc), >96% pure) [EphA2 883-891 peptide TLADFDPRV]
binds | VLLGAVCGV (Synthetic peptide (Fmoc), >96% pure) [NRP1 869-877 peptide VLLGAVCGV]
binds | YLQVDLRFL (Synthetic peptide (Fmoc), >96% pure) [NRP2 328-336 peptide YLQVDLRFL]
binds | LLVPTCVFLV (Synthetic peptide (Fmoc), >96% pure) [TEM1 691-700 peptide LLVPTCVFLV]
binds | GLLRFVTAV (Synthetic peptide (Fmoc), >96% pure) [NRP1 331-339 peptide GLLRFVTAV]
